Results taken from the supplement of paper PMC9170038.

Tested on: MS2 coat protein
Test: apparent KD of MS2 coat protein; designed switch direction (-1 OFF switch, 1 ON switch): -1; higher = weaker reporter binding
How it was run: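 For each design, the apparent KD is the median over clusters of curves fitted to normalised cluster fluorescence. Clusters held RNA switches with common flanks, transcribed on Illumina chips by stalled E. coli RNA polymerase. These were titrated with SNAP-549-labelled MS2 coat protein, doubling from 0.7 or 1.5 nM to 3 µM, without input, with 200 uM small-molecule ligand, or with an oligonucleotide input.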

[1] = Eterna round: R95, input ligand: FMN 200 uM
[2] = Eterna round: R95, input ligand: microRNA oligo, concentration not stated
[3] = Eterna round: R95, input ligand: none
[4] = input ligand: microRNA oligo, concentration not stated

Sequence: AGUAACCGUCACGAAAGUGAUGGUUACACAAGCAAUGAAACAUGAGGAUCACCCAUGUCCUCAUUUGCUCGUCUUAU [Sensor 3 - 40] (puzzle: Sensor v3, turn-off variant 2)
- apparent KD of MS2 coat protein [1]: 25.5 nM
- apparent KD of MS2 coat protein [2]: 486 nM
- apparent KD of MS2 coat protein [3]: 26.8 nM

Sequence: AGUACUAACACGAAAGUGUUAGUACAAUAAGCUAGUGGAACAUGAGGAUCACCCAUGUCCUCAUUAGCUCGUCUUAG [Mat - Sensor v3 - Turn-off var 2 - D35] (puzzle: Sensor v3, turn-off variant 2)
- apparent KD of MS2 coat protein [1]: 15.4 nM
- apparent KD of MS2 coat protein [2]: 39.7 nM
- apparent KD of MS2 coat protein [3]: 15.1 nM

Sequence: AGUACUAACACGAAAGUGUUAGUACAAUAAGCUUGUGAAACAUGAGGAUCACCCAUGUCCUCAUAAGCUCGUCUUAU [Mat - Sensor v2 -ver2- JL mod - D68] (Eterna round: R96, puzzle: Sensor v2, turn-off variant 2)
- apparent KD of MS2 coat protein (input ligand: FMN 200 uM): 15.4 nM
- apparent KD of MS2 coat protein [4]: 468 nM
- apparent KD of MS2 coat protein (input ligand: none): 17.6 nM

Sequence: AGUACUAACACGAAAGUGUUAGUACAAUAAGCUUGUGAAACAUGAGGAUCACCCAUGUCCUCAUAAGCUCGUCUUAU [salish99_TOv2_r3_001again] (puzzle: Sensor v3, turn-off variant 2)
- apparent KD of MS2 coat protein [1]: 16.7 nM
- apparent KD of MS2 coat protein [2]: 648 nM
- apparent KD of MS2 coat protein [3]: 15.9 nM

Sequence: AGUACUAGCACGAAAGUGUUAGUACAAUAAGCUUGUGAAACAUGAGGAUCACCCAUGUCCUCAUAAGCUCGUCUUAU [salish99_TOv2_r3_020] (puzzle: Sensor v3, turn-off variant 2)
- apparent KD of MS2 coat protein [1]: 18.2 nM
- apparent KD of MS2 coat protein [2]: 429 nM
- apparent KD of MS2 coat protein [3]: 16 nM

Sequence: AGUACUAUGCGAGCUGACUUGCGUAGUGCAGCAGGUGUAACAUGAGGAUCACCCAUGUCCUCAUUUGCUCGUCUUAU [Mat - Sensor v3 - Turn-off var 2 - D8] (puzzle: Sensor v3, turn-off variant 2)
- apparent KD of MS2 coat protein [1]: 250 nM
- apparent KD of MS2 coat protein [2]: 326 nM
- apparent KD of MS2 coat protein [3]: 248 nM

Sequence: AGUAGAUCUACGCUUGCGUGGAUCUGCAAUGCAGGUGUUACAUGAGGAUCACCCAUGUCCUCAUUUGUUCGUCUUAG [JL turnoff v2 99.09] (puzzle: Sensor v3, turn-off variant 2)
- apparent KD of MS2 coat protein [1]: 568 nM
- apparent KD of MS2 coat protein [2]: 322 nM
- apparent KD of MS2 coat protein [3]: 395 nM

Sequence: AGUAGAUCUACGCUUGCGUGGAUCUGCUAGGCAGGUGUAACAUGAGGAUCACCCAUGUCCUCAUUUGUUCGUCUUAU [JL turnoff v2 99.18] (puzzle: Sensor v3, turn-off variant 2)
- apparent KD of MS2 coat protein [1]: 85.4 nM
- apparent KD of MS2 coat protein [2]: 313 nM
- apparent KD of MS2 coat protein [3]: 28.3 nM

Sequence: AGUAGGUCUACCUUGGUGGAUCUGCAUUUAGGCAGGUGUACAUGAGGAUCACCCAUGUCCUCAUUUGCUCGUCUUAU [JL turnoff v2 99.29] (puzzle: Sensor v3, turn-off variant 2)
- apparent KD of MS2 coat protein [1]: 807 nM
- apparent KD of MS2 coat protein [2]: 488 nM
- apparent KD of MS2 coat protein [3]: 952 nM

Sequence: AGUAGUUACGUAGGAUAUGAGGAUCACCCAUAGAAGGAUAUCGAAAGAGAAGGUCUGAGGAUUACCCAGAAGGACGUGACUACA [pwkr exNG2 2xF5 2xFMN.9] (Eterna round: R96, puzzle: Exclusion NG 2)
- apparent KD of MS2 coat protein (input ligand: FMN 200 uM): 334 nM
- apparent KD of MS2 coat protein [4]: 113 nM
- apparent KD of MS2 coat protein (input ligand: none): 138 nM

Sequence: AGUAUAAUGUACGUGCACCACUUACAUGAGGAUCACCCAUGUUAGGAUAUCGAGCCUUUCUGGCUCGAGAAGGGACUCUUCGGG [Eternabot solution 18] (Eterna round: R96, puzzle: Exclusion NG 3)
- apparent KD of MS2 coat protein (input ligand: FMN 200 uM): 33.2 nM
- apparent KD of MS2 coat protein [4]: 22.9 nM
- apparent KD of MS2 coat protein (input ligand: none): 29.1 nM

Sequence: AGUAUCUGAGGAUAUUGAGUUAUCUACAUGAGGAUCACCCAUGUUGUAUGUGUAGAAGCACGAGAAGGCAGAUACA [Eternabot (L2) Solution 1] (Eterna round: R97, puzzle: Exclusion 5)
- apparent KD of MS2 coat protein (input ligand: FMN 200 uM): 395 nM
- apparent KD of MS2 coat protein (input ligand: none): 102 nM

Sequence: AGUCAGGCGGUAGGAUAUCCAAACCGAGUGACCCUUUCAUAACAUGAGGAUCACCCAUGUCGGUGGGAGAAGGGCCGUACGGCA [Mat - Exclusion NG 2 - Mod of JL - D65] (Eterna round: R96, puzzle: Exclusion NG 2)
- apparent KD of MS2 coat protein (input ligand: FMN 200 uM): 410 nM
- apparent KD of MS2 coat protein [4]: 173 nM
- apparent KD of MS2 coat protein (input ligand: none): 159 nM

Sequence: AGUCAGGCGGUAGGAUAUCCAUAUCGAGUGACCCUUUCAUAACAUGAGGAUCACCCAUGUCGGUGGGAGAAGGGCCGUAAGGCA [Mat - Exclusion NG 2 - Mod of JL - D69] (Eterna round: R96, puzzle: Exclusion NG 2)
- apparent KD of MS2 coat protein (input ligand: FMN 200 uM): 53.6 nM
- apparent KD of MS2 coat protein [4]: 30.5 nM
- apparent KD of MS2 coat protein (input ligand: none): 41.1 nM

Sequence: AGUCCAUAUGUUAGGAUAUGCAACUAGCCAUUGUAGCAGAAGGAACAUGAGGAUCACCCAUGUACAAAGACCCG [Biinvees] (puzzle: Brourd's mod of Exclusion 4)
- apparent KD of MS2 coat protein [1]: 33.6 nM
- apparent KD of MS2 coat protein [2]: 23.6 nM
- apparent KD of MS2 coat protein [3]: 18.2 nM

Sequence: AGUCCUGAAGUUAGGAUAUGAAGUAUCACUGCACUUCAGAAGGGACUUGAGGAUCACCCAAGUAGCCGUGAGGG [salish99_bmod_ex4_r4_002] (Eterna round: R97, puzzle: Brourd's mod of Exclusion 4)
- apparent KD of MS2 coat protein (input ligand: FMN 200 uM): 128 nM
- apparent KD of MS2 coat protein (input ligand: none): 70.6 nM

Sequence: AGUCGGUCAGGAUAUGCAAUCGUGGACAUGAGGAUCACCCAUGUAACGUGGGCCUGGUUUGUAGAAGGGACGUGCA [EX5 #88] (Eterna round: R97, puzzle: Exclusion 5)
- apparent KD of MS2 coat protein (input ligand: FMN 200 uM): 63.2 nM
- apparent KD of MS2 coat protein (input ligand: none): 55.2 nM

Sequence: AGUCUGCGAGGAUAUACAUGAGGAUCACCCAUGUGCGAGAUACUAGUGAGGUCGAUUGGUAGAAGGCGCGGACG [Mat - Exclusion 3 - Mod of JL D85] (puzzle: Exclusion 3)
- apparent KD of MS2 coat protein [1]: 86.4 nM
- apparent KD of MS2 coat protein [2]: 93.1 nM
- apparent KD of MS2 coat protein [3]: 67 nM

Sequence: AGUGUGGGAGGAUAUACAUGAGGAUCACCCAUGUGAGUUGGCUCACAUGCUACGCUUCGUAGAAGGCCCAAAGA [Reragebion] (Eterna round: R96, puzzle: Exclusion 3)
- apparent KD of MS2 coat protein (input ligand: FMN 200 uM): 554 nM
- apparent KD of MS2 coat protein [4]: 86.2 nM
- apparent KD of MS2 coat protein (input ligand: none): 91.3 nM

Sequence: AGUUGGCGAGGAUAUACAUGAGGAUCACCCAUGUGAAAUAGAAUAGUGAGGAAGAAAAGUAGAAGGCGCUGACA [Mat - Exclusion 3 - Mod of Salish D41] (puzzle: Exclusion 3)
- apparent KD of MS2 coat protein [2]: 49.7 nM

Sequence: AGUUGGCGAGGAUAUACAUGAGGAUCACCCAUGUGAAGAAGAAUAGUGAGGAAGAAAAGUAGAAGGCGCUGACA [Mat - Exclusion 3 - Mod of Salish D37] (Eterna round: R96, puzzle: Exclusion 3)
- apparent KD of MS2 coat protein (input ligand: FMN 200 uM): 412 nM
- apparent KD of MS2 coat protein [4]: 33.6 nM
- apparent KD of MS2 coat protein (input ligand: none): 48.5 nM

Sequence: AGUUGGCGAGGAUAUACAUGAGGAUCACCCAUGUGAAGAAGAAUAGUGAGGAAGAAAAGUAGAAGGCGCUGACA [Mat - Exclusion 3 - Mod of Salish D37] (puzzle: Exclusion 3)
- apparent KD of MS2 coat protein [2]: 36.6 nM

Sequence: AGUUGGCGAGGAUAUACAUGAGGAUCACCCAUGUGAGAGAAAAAAGUGAGGAAGAAAAGUAGAAGGCGCUGACU [salish99_ex3_r3_039] (puzzle: Exclusion 3)
- apparent KD of MS2 coat protein [1]: 313 nM
- apparent KD of MS2 coat protein [2]: 46.3 nM
- apparent KD of MS2 coat protein [3]: 60.4 nM

Sequence: AUAAAACGAGGAUAUGCUGGGCUUCUGUGAUGCAUAUGCUCACAUGAGGAUCACCCAUGUAGAAGGUGUAAAAU [Laaceve] (Eterna round: R96, puzzle: Exclusion 2)
- apparent KD of MS2 coat protein (input ligand: FMN 200 uM): 389 nM
- apparent KD of MS2 coat protein [4]: 221 nM
- apparent KD of MS2 coat protein (input ligand: none): 331 nM

Sequence: AUAAAACGAGGAUAUGCUGGGCUUCUGUGAUGCAUAUGCUCACAUGAGGAUCACCCAUGUAGAAGGUGUAAAAU [Laaceve] (puzzle: Exclusion 2)
- apparent KD of MS2 coat protein [2]: 220 nM

Sequence: AUAAAAUGCCAAGGAUAUCGGAAAGGAAGUGUACGAGAAGGUGGAGAUCCUAUACAUGAGGAUCACCCAUGUAUCAAGCUUGGG [PowerStrip EXNG 1.10] (Eterna round: R96, puzzle: Exclusion NG 1)
- apparent KD of MS2 coat protein (input ligand: FMN 200 uM): 692 nM
- apparent KD of MS2 coat protein [4]: 510 nM
- apparent KD of MS2 coat protein (input ligand: none): 760 nM

Sequence: AUAAAUCAUGUAGGAUAUGCGUGGCGAAGCUAUGCAGAAGGACAUGAGGAUCACCCAUGUCUUUCCGUCUGCGUACAGACGGAA [Mat - Exclusion NG 1 - Mod of JL - D41] (Eterna round: R96, puzzle: Exclusion NG 1)
- apparent KD of MS2 coat protein (input ligand: FMN 200 uM): 289 nM
- apparent KD of MS2 coat protein [4]: 23.6 nM
- apparent KD of MS2 coat protein (input ligand: none): 24.5 nM

Sequence: AUAAUAAAGGAGGAUAUCGUAACGGAAACGUUACGAGAAGGUCUAACAUGAGGAUCACCCAUGUUCCUCAAAUA [Mat - Exclusion 6 - Eli Mod - D50] (puzzle: Exclusion 6)
- apparent KD of MS2 coat protein [1]: 47.8 nM
- apparent KD of MS2 coat protein [2]: 35.4 nM
- apparent KD of MS2 coat protein [3]: 47 nM

Sequence: AUAAUGUAAGGAUAUCAGUCGACUAGCCUCGGCUAGUCGACUGAGAAGGUACAUGAGGAUCACCCAUGUGUUUC [E4/12-A3] (Eterna round: R97, puzzle: Exclusion 4)
- apparent KD of MS2 coat protein (input ligand: FMN 200 uM): 244 nM
- apparent KD of MS2 coat protein (input ligand: none): 35.6 nM

Sequence: AUAAUGUGAGGAUAUCGAGACUACUGCCUCGGCAGUAGUCUCGAGAAGGCACAUGAGGAUCACCCAUGUGAUCA [E4/2-A2] (Eterna round: R97, puzzle: Exclusion 4)
- apparent KD of MS2 coat protein (input ligand: FMN 200 uM): 79 nM
- apparent KD of MS2 coat protein (input ligand: none): 1190 nM

Sequence: AUACCACGAGGAUAUCGUCUAUUCCACAUGAGGAUCACCCAUGUUAUCCAUGUUUCGUUUCGAGAAGGCGUGGGUU [JR_E5_Sub074] (Eterna round: R96, puzzle: Exclusion 5)
- apparent KD of MS2 coat protein (input ligand: FMN 200 uM): 50.8 nM
- apparent KD of MS2 coat protein [4]: 38.2 nM
- apparent KD of MS2 coat protein (input ligand: none): 51.6 nM

Sequence: AUACCACGAGGAUAUCGUCUAUUCCACAUGAGGAUCACCCAUGUUAUCCAUGUUUCGUUUCGAGAAGGCGUGGGUU [JR_E5_Sub074] (puzzle: Exclusion 5)
- apparent KD of MS2 coat protein [2]: 45.9 nM
